The values below come from the RNAGym collection of RNA variant scans (doi:10.7554/elife.90254).

B1: OR4K15 (parent)
chain: GUUAACGGUCAUAGGCCAUGGAAACUAGGAGCACCAUUUCGCUGCCAGUGAAGAAAUGAACAAAGAAAAUCUGGGCCAGGCAGGCAUCAAAAGAAAUAGUCUUGCGCUCAACCAGAAAGUCUGUAAUCAUUUUAAGGGUA

In this data set the parent is B1. The experiment in a line: self-cleavage, relative activity (ratio to wild type); higher = more cleavage; in vitro, sequencing; the parent is a self-cleaving ribozyme.
With GUUAACGGUCAUAGGCCAUGGAAACUAGGAGCACCAUUUCGCUGCCAGUGAAGAAAUGAACAAAGAAAAUCUGGGCCAGGCAGGCAUCAAAAGAAAUAGUCUUGCGCUCAACCAGAAAGUCUGUAAUCAUUUCAUGGGUA [U133C A135U], the self-cleavage came out at 1.71.

GUUAACGGUCAUAGGCCAUGGAAACUAGGAGCACCAUUUCGCUGCCAGUGAAGAAAUGAACAAAGAAAAUCUGGGCCAGGCAGGCAUCAAAAGAAAUAGUCUUGCGCUCAACCAGAAAGUCUGUAAUCAUUUAAAUGGUA [U133A G136U]: the self-cleavage was found to be 0.91.

For GUUAACGGUCAUAGGCCAUGGAAACUAGGAGCACCAUUUCGCUGCCAGUGAAGAAAUGAACAAAGAAAAUCUGGGCCAGGCAGGCAUCAAAAGAAAUAGUCUUGCGCUCAACCAGAAAGUCUGUAAUCAUUUUGAGGGUG [A134G A140G], the self-cleavage turned out to be 0.28.

For GUUAACGGUCAUAGGCCAUGGAAACUAGGAGCACCAUUUCGCUGCCAGUGAAGAAAUGAACAAAGAAAAUCUGGGCCAGGCAGGCAUCAAAAGAAAUAGUCUUGCGCUCAACCAGAAAGUCUGUAAUCAUUUUUAGGGAA [A134U U139A], the self-cleavage is 1.59.

In the case of GUUAACGGUCAUAGGCCAUGGAAACUAGGAGCACCAUUUCGCUGCCAGUGAAGAAAUGAACAAAGAAAAUCUGGGCCAGGCAGGCAUCAAAAGAAAUAGUCUUGCGCUCAACCAGAAAGUCUGUAAUCAUUCUGAGGGUA [U132C A134G], the self-cleavage was 1.05.

As for GUUAACGGUCAUAGGCCAUGGAAACUAGGAGCACCAUUUCGCUGCCAGUGAAGAAAUGAACAAAGAAAAUCUGGGCCAGGCAGGCAUCAAAAGAAAUAGUCUUGCGCUCAACCAGAAAGUCUGUAAUCAUUUUAAAGGUU [G136A A140U], the self-cleavage was 2.39.

For the variant GUUAACGGUCAUAGGCCAUGGAAACUAGGAGCACCAUUUCGCUGCCAGUGAAGAAAUGAACAAAGAAAAUCUGGGCCAGGCAGGCAUCAAAAGAAAUAGUCUUGCGCUCAACCAGAAAGUCUGUAAUCAUUUUAAGGGUC [A140C], the self-cleavage came out at 1.4.

Take GUUAACGGUCAUAGGCCAUGGAAACUAGGAGCACCAUUUCGCUGCCAGUGAAGAAAUGAACAAAGAAAAUCUGGGCCAGGCAGGCAUCAAAAGAAAUAGUCUUGCGCUCAACCAGAAAGUCUGUAAUCAUUUUAAGGGUG [A140G]: the self-cleavage worked out at 1.15.

For GUUAACGGUCAUAGGCCAUGGAAACUAGGAGCACCAUUUCGCUGCCAGUGAAGAAAUGAACAAAGAAAAUCUGGGCCAGGCAGGCAUCAAAAGAAAUAGUCUUGCGCUCAACCAGAAAGUCUGUAAUCAUUUUAAGGGUU [A140U], the self-cleavage amounted to 1.12.

For GUUAACGGUCAUAGGCCAUGGAAACUAGGAGCACCAUUUCGCUGCCAGUGAAGAAAUGAACAAAGAAAAUCUGGGCCAGGCAGGCAUCAAAAGAAAUAGUCUUGCGCUCAACCAGAAAGUCUGUAAUCAUUUUAAGGGCC [U139C A140C], the self-cleavage was found to be 1.42.

For the variant GUUAACGGUCAUAGGCCAUGGAAACUAGGAGCACCAUUUCGCUGCCAGUGAAGAAAUGAACAAAGAAAAUCUGGGCCAGGCAGGCAUCAAAAGAAAUAGUCUUGCGCUCAACCAGAAAGUCUGUAAUCAUUUUAAGGGAA [U139A], the self-cleavage was found to be 0.59.

In the case of GUUAACGGUCAUAGGCCAUGGAAACUAGGAGCACCAUUUCGCUGCCAGUGAAGAAAUGAACAAAGAAAAUCUGGGCCAGGCAGGCAUCAAAAGAAAUAGUCUUGCGCUCAACCAGAAAGUCUGUAAUCAUUUUAAGGGCA [U139C], the self-cleavage came to 1.04.

On to GUUAACGGUCAUAGGCCAUGGAAACUAGGAGCACCAUUUCGCUGCCAGUGAAGAAAUGAACAAAGAAAAUCUGGGCCAGGCAGGCAUCAAAAGAAAUAGUCUUGCGCUCAACCAGAAAGUCUGUAAUCAUUUUAAGGGGA [U139G], for which the self-cleavage was determined as 1.1.

Consider GUUAACGGUCAUAGGCCAUGGAAACUAGGAGCACCAUUUCGCUGCCAGUGAAGAAAUGAACAAAGAAAAUCUGGGCCAGGCAGGCAUCAAAAGAAAUAGUCUUGCGCUCAACCAGAAAGUCUGUAAUCAUUUCAAGGGUU [U133C A140U], for which the self-cleavage was determined as 2.09.

With GUUAACGGUCAUAGGCCAUGGAAACUAGGAGCACCAUUUCGCUGCCAGUGAAGAAAUGAACAAAGAAAAUCUGGGCCAGGCAGGCAUCAAAAGAAAUAGUCUUGCGCUCAACCAGAAAGUCUGUAAUCAUUUCAAGGGUG [U133C A140G], the self-cleavage stood at 1.34.

Turning to GUUAACGGUCAUAGGCCAUGGAAACUAGGAGCACCAUUUCGCUGCCAGUGAAGAAAUGAACAAAGAAAAUCUGGGCCAGGCAGGCAUCAAAAGAAAUAGUCUUGCGCUCAACCAGAAAGUCUGUAAUCAUUUGAAGGGUA [U133G], the self-cleavage came to 0.38.

Turning to GUUAACGGUCAUAGGCCAUGGAAACUAGGAGCACCAUUUCGCUGCCAGUGAAGAAAUGAACAAAGAAAAUCUGGGCCAGGCAGGCAUCAAAAGAAAUAGUCUUGCGCUCAACCAGAAAGUCUGUAAUCAUUUAAAGGGUA [U133A], the self-cleavage worked out at 1.32.

Consider GUUAACGGUCAUAGGCCAUGGAAACUAGGAGCACCAUUUCGCUGCCAGUGAAGAAAUGAACAAAGAAAAUCUGGGCCAGGCAGGCAUCAAAAGAAAUAGUCUUGCGCUCAACCAGAAAGUCUGUAAUCAUUUCAAGGGUA [U133C], for which the self-cleavage worked out at 1.29.

Consider GUUAACGGUCAUAGGCCAUGGAAACUAGGAGCACCAUUUCGCUGCCAGUGAAGAAAUGAACAAAGAAAAUCUGGGCCAGGCAGGCAUCAAAAGAAAUAGUCUUGCGCUCAACCAGAAAGUCUGUAAUCAUUCUAAGGGAA [U132C U139A], for which the self-cleavage is 0.99.

As to GUUAACGGUCAUAGGCCAUGGAAACUAGGAGCACCAUUUCGCUGCCAGUGAAGAAAUGAACAAAGAAAAUCUGGGCCAGGCAGGCAUCAAAAGAAAUAGUCUUGCGCUCAACCAGAAAGUCUGUAAUCAUUCUAGGGGUA [U132C A135G], the self-cleavage came to 1.53.

Take GUUAACGGUCAUAGGCCAUGGAAACUAGGAGCACCAUUUCGCUGCCAGUGAAGAAAUGAACAAAGAAAAUCUGGGCCAGGCAGGCAUCAAAAGAAAUAGUCUUGCGCUCAACCAGAAAGUCUGUAAUCAUUUUAUGUGUA [A135U G137U]: the self-cleavage was found to be 1.68.

On to GUUAACGGUCAUAGGCCAUGGAAACUAGGAGCACCAUUUCGCUGCCAGUGAAGAAAUGAACAAAGAAAAUCUGGGCCAGGCAGGCAUCAAAAGAAAUAGUCUUGCGCUCAACCAGAAAGUCUGUAAUCAUUUUGGGGGUA [A134G A135G], for which the self-cleavage is 1.25.

Take GUUAACGGUCAUAGGCCAUGGAAACUAGGAGCACCAUUUCGCUGCCAGUGAAGAAAUGAACAAAGAAAAUCUGGGCCAGGCAGGCAUCAAAAGAAAUAGUCUUGCGCUCAACCAGAAAGUCUGUAAUCAUUUUAAGCGUU [G137C A140U]: the self-cleavage worked out at 1.65.

On to GUUAACGGUCAUAGGCCAUGGAAACUAGGAGCACCAUUUCGCUGCCAGUGAAGAAAUGAACAAAGAAAAUCUGGGCCAGGCAGGCAUCAAAAGAAAUAGUCUUGCGCUCAACCAGAAAGUCUGUAAUCAUUCUAAGGUUA [U132C G138U], for which the self-cleavage is 1.54.

Regarding GUUAACGGUCAUAGGCCAUGGAAACUAGGAGCACCAUUUCGCUGCCAGUGAAGAAAUGAACAAAGAAAAUCUGGGCCAGGCAGGCAUCAAAAGAAAUAGUCUUGCGCUCAACCAGAAAGUCUGUAAUCAUUUUGAGUGUA [A134G G137U], the self-cleavage was 0.44.

Take GUUAACGGUCAUAGGCCAUGGAAACUAGGAGCACCAUUUCGCUGCCAGUGAAGAAAUGAACAAAGAAAAUCUGGGCCAGGCAGGCAUCAAAAGAAAUAGUCUUGCGCUCAACCAGAAAGUCUGUAAUCAUCAUAAGGGUA [U131C U132A]: the self-cleavage stood at 0.94.

Take GUUAACGGUCAUAGGCCAUGGAAACUAGGAGCACCAUUUCGCUGCCAGUGAAGAAAUGAACAAAGAAAAUCUGGGCCAGGCAGGCAUCAAAAGAAAUAGUCUUGCGCUCAACCAGAAAGUCUGUAAUCAUCCUAAGGGUA [U131C U132C]: the self-cleavage is 1.1.

Turning to GUUAACGGUCAUAGGCCAUGGAAACUAGGAGCACCAUUUCGCUGCCAGUGAAGAAAUGAACAAAGAAAAUCUGGGCCAGGCAGGCAUCAAAAGAAAUAGUCUUGCGCUCAACCAGAAAGUCUGUAAUCAUUUUAAAGGUA [G136A], the self-cleavage stood at 1.34.

Consider GUUAACGGUCAUAGGCCAUGGAAACUAGGAGCACCAUUUCGCUGCCAGUGAAGAAAUGAACAAAGAAAAUCUGGGCCAGGCAGGCAUCAAAAGAAAUAGUCUUGCGCUCAACCAGAAAGUCUGUAAUCAUUUUAACGGUA [G136C], for which the self-cleavage came out at 1.29.

Turning to GUUAACGGUCAUAGGCCAUGGAAACUAGGAGCACCAUUUCGCUGCCAGUGAAGAAAUGAACAAAGAAAAUCUGGGCCAGGCAGGCAUCAAAAGAAAUAGUCUUGCGCUCAACCAGAAAGUCUGUAAUCAUUUUAAUGGUA [G136U], the self-cleavage was determined as 1.07.
